According to patent US10564159:

Legend:
[1] = molecular target: human TSH receptor (wild type), displayed on CHO-Rluc cells (human) (UniProt P16473); test: cell-based or functional assay
[2] = molecular target: chimeric hTSH/rLH-R receptor (RMc4), displayed on CHO-RMc4luc cells (human TSH receptor with a segment of rat LH receptor); test: cell-based or functional assay

Ratio of Signal/Negative, luciferase reporter, FSH 364 mIU/ml on CHO-Rluc cells [1] | luciferase RLU, FSH 364 mIU/ml on CHO-Rluc cells [1] [RLU] | Ratio of Signal/Negative, luciferase reporter, FSH 364 mIU/ml on CHO-Mc4luc cells [2] | luciferase RLU, FSH 364 mIU/ml on CHO-RMc4luc cells [2] [RLU] | Ratio of Signal/Negative, luciferase reporter, LH 455 mIU/ml on CHO-Rluc cells [1] | luciferase RLU, LH 455 mIU/ml on CHO-Rluc cells [1] [RLU] | Ratio of Signal/Negative, luciferase reporter, LH 455 mIU/ml on CHO-Mc4luc cells [2] | luciferase RLU, LH 455 mIU/ml on CHO-RMc4luc cells [2] [RLU] | Substance
0.7 | 728 | 0.6 | 1020 |  |  |  |  | human follicle stimulating hormone (from UniProt P01215 25-116; P01225 19-129) (ligand)
 |  |  |  | 0.8 | 835 | 0.9 | 1560 | human luteinizing hormone (from UniProt P01215 25-116; P01229 21-141) (ligand)
